Measurements published in article PMC9976904, “eIF4A1-dependent mRNAs employ purine-rich 5’UTR sequences to activate localised eIF4A1-unwinding through eIF4A1-multimerisation to facilitate translation”.

Target: eIF4A1 DQAD (human, UniProt P60842 1-406, E183Q)
Assay: EMSA; silvestrol; affinity similar to wt; 20 mM HEPES/KOH pH 7.5, 100 mM KCl, 1 mM TCEP, 1% DMSO, 2 mM AMPPNP/MgCl2, 25 C, 60 min; EMSA gels 6-7% acrylamide-TB, 0.5x TB
Settings: protein: recombinant; tags: N-terminal 6xHis-SUMO, cleaved; label: FAM or 5' Dy780

Chain of eIF4A1 DQAD (P60842 whole entry E183Q): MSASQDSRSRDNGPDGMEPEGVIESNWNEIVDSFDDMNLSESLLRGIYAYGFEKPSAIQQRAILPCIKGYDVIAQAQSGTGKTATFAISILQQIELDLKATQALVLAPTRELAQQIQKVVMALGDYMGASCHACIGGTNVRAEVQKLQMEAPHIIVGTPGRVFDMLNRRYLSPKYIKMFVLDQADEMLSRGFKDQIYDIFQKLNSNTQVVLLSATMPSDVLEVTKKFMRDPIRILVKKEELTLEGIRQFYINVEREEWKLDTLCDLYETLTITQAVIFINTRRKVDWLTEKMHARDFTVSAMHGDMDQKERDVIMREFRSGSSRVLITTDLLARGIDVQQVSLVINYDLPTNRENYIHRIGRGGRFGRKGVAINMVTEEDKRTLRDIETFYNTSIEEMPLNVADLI

AGAGAGAGAGAGAGAGAGAG (ssRNA) [AG-RNA (20 nt)]: binds.
